The values that follow come from US20100092465A1, “TREATMENT OF GRAFT-VERSUS-HOST DISEASE” (priority 2006, published 2010).

Series [1] addresses T1, human ligand (single-chain IL27) (Homo sapiens, UniProt Q14213+Q8NEV9).
T1 construct: amino-terminal peptide tag (N)
T1 sequence (Q14213+Q8NEV9 with tags, fused parts or gaps): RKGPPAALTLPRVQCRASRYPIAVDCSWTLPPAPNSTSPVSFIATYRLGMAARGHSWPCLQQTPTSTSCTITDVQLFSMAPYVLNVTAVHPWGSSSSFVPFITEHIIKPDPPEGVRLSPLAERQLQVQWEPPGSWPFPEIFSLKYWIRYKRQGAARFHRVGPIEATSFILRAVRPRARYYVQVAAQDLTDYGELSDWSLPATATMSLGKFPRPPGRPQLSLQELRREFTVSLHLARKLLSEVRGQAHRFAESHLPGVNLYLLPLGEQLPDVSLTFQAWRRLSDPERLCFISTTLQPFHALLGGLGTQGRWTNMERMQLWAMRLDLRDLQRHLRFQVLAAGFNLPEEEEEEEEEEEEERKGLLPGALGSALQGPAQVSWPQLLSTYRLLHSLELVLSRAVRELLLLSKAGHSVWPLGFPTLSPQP
As to the kind of experiment: SPR kinetics of soluble receptor with human IL27 ligand. As to conditions: binding with human ligand; gp130 not included. The protocol:
Kinetic rate and affinity constant values for the mouse (IL27RAm(mFc1), Example 3) and human (IL27RA-Fc5, Example 4) soluble receptors were obtained by surface plasmon resonance (SPR) using an automated instrument (BIACORE 3000; Biacore International AB, Uppsala, Sweden). The mouse soluble receptor was tested against mouse ligand (lot A1418F), and the human soluble receptor was tested against both mouse (A1426F) and human (A1534F) ligands. For determination of the kinetic rate constants for the receptor-ligand interactions, the gp130 molecule was not included as part of the receptor complex.
The IL27 ligands used in this study were single-chain molecules comprising EBI3 connected by its C-terminus to the N-terminus of IL-27 p28 via a polypeptide linker. Each of the ligands included an amino-terminal peptide tag.
For the mouse IL27RA study, the soluble receptor was captured onto the chip surface by an isotype-specific anti-mouse Fc antibody (obtained from Jackson ImmunoResearch Laboratories, Inc., West Grove, Pa.) covalently immobilized to the chip (BIACORE CM5 chip) using the standard amine coupling protocol specified by the instrument manufacturer. […]
All data were assessed using software provided with the instrument (BIACORE Evaluation software v. 3.2). […]

The nature of series [2]: Pharmacokinetics of soluble receptors in female C57B1/6 mice. It is filed as in vivo, mouse. The note with it: for terminal / circulatory half-life, comparison in words: human Fc5 fusion versus mouse Fc1 fusion. The protocol: Studies were performed to evaluate the pharmacokinetics of the mouse (IL-27RAm(mFc1)) and human (IL-27RA-Fc5) soluble receptors in female C57B1/6 mice.
Serum was generated from each sample and analyzed by a qualified enzyme-linked immunosorbant assay (ELISA). The resulting mean serum concentration versus time profiles were then subjected to noncompartmental pharmacokinetic analyses. The following pharmacokinetic parameters were calculated: C0 and Cmax (extrapolated concentration at time zero and maximum serum concentration, respectively), Tmax (time to achieve maximum concentration), t1/2 λz (terminal half-life), AUC0-t (area under the concentration versus time curve from time zero to the last measurable time point), AUCINF (area under the concentration versus time curve extrapolated to infinity), Cl or Cl/F (clearance or clearance divided by bioavailable fraction, respectively), VSS or VZ/F (steady state volume of distribution or volume of distribution divided by the bioavailable fraction, respectively), and F (bioavailable fraction).

In series [1], “human IL-27RA-Fc5: human IL27RA extracellular domain (amino acids 1 to 512 of SEQ ID NO:5) fused to Fc5, effector minus human gamma1 Fc; SEQ ID NO:3” gave a ka of 1e+07 M⁻¹ s⁻¹ and a kd of 0.0019 s⁻¹. In series [2] (IP, 100 μg), the AUC0-120 was found to be 1310 µg·h/mL, the AUCINF amounted to 1380 µg·h/mL, the Cl/F was found to be 0.0725 mL/h and the Tmax is 3 h. For the same substance, the “t1/2 λz” value in series [2] (IP, 100 μg) amounted to 28.3 h. Moreover, the Cmax in series [2] (IP, 100 μg, serum) turned out to be 35200 ng/mL. In addition, in series [2] (IV, 100 μg), the AUC0-120 is 1400 µg·h/mL, the AUCINF is 1510 µg·h/mL, the Cl is listed as 0.0664 mL/h and the Vss was determined as 2.54 mL. For the same substance, in series [2] (IV, 100 μg), the “t1/2 λz” value came out at 34.9 h. The same substance registered a Co in series [2] (IV, 100 μg, serum) of 122 µg/mL. In series [2] (SC, 100 μg), the AUC0-120 came out at 1130 µg·h/mL, the AUCINF was found to be 1210 µg·h/mL, the Cl/F turned out to be 0.0828 mL/h and the Tmax amounted to 6 h. The “t1/2 λz” value in series [2] (SC, 100 μg) was determined as 29.3 h. This substance came in with a Cmax in series [2] (SC, 100 μg, serum) of 21000 ng/mL. The “terminal / circulatory half-life, comparison in words” value in series [2] (listed as fusion protein comprising an Fc fragment that had been engineered to remove effe) is “markedly improved circulatory half-life”. Moreover, in series [2] (listed as human Fc5 fusion protein), the “terminal / circulatory half-life, comparison in words” value is listed as “much longer terminal half-life”.
